# Experimental data from IntAct's records for PubMed 10930573.
# B1: Histidine kinase 1 (Arabidopsis thaliana (Mouse-ear cress)), Q9SXL4 (parent)
# chain: MRGDSFSMSIENLPDSPMGSRKKKMQIRKVFDKMTEWVTPWRSNLESPREMMILRGDVEQDEFQYASSHCLSSYYSVFVVRLAIMVMLAILIGLLTVLTWHFTRIYTKQSLQTLAYGLRYELLQRPVLRMWSVLNTTSELTTAQVKLSEYVIKKYDKPTTQEELVEMYQAMKDVTWALFASAKALNAITINYRNGFVQAFHRDPASSSTFYIFSDLKNYSISGTGPEDVSGWNNKSIHGNMSAIWYQQQLDPVTGENLGKPLKIPPDDLINIAGISQVPDGEASWHVTVSKYMDSPLLSAALPVFDASNKSIVAVVGVTTALYSVGQLMRDLVEVHGGHIYLTSQEGYLLATSTDGPLLKNTSNGPQLMKATDSEEWVIKSGAQWLEKTYGSKRPHVVHAENVKLGDQRYYIDSFYLNLKRLPIVGVVIIPRKFIMGKVDERAFKTLIILISASVCIFFIGCVCILILTNGVSKEMKLRAELIRQLDARRRAEASSNYKSQFLANMSHELRTPMAAVIGLLDILISDDCLSNEQYATVTQIRKCSTALLRLLNNILDLSKVESGKLVLEEAEFDLGRELEGLVDMFSVQCINHNVETVLDLSDDMPALVRGDSARLVQIFANLISNSIKFTTTGHIILRGWCENINSLHDEMSVSVDRRKPWAPMKTKQVQHRNHLQKSCKNANKMVLWFEVDDTGCGIDPSKWDSVFESFEQADPSTTRTHGGTGLGLCIVRNLVNKMGGEIKVVQKNGLGTLMRLYLILSTPDTVDQNIQPDFSKYGLVVMLSMYGSTARMITSKWLRKHGIATVEASDWNELTQIIRDLLETGSRDNSFDSQHNISDPLRAELSNIVEIKNPVFVIVVDIGVLDLTTNIWKEQLNYLDRFSNKAKFAWLLKHDTSNTVKTELRRKGHVMMVNKPLYKAKMIQILEAVIKNRKRGLCNDLRNRGNGSDESHDCLEIDPTQFDTCSSDDSSETSGEKQVDKSVKPSTLHSPVLKNYLIDATTSNDDSTSASMTQKNPEEEDWKDRLYSGIALDGKNQKSLEGIRILLAEDTPVLQRVATIMLEKMGATVTAVWDGQQAVDSLNYKSINAQAPTEEHKSFEEETANKVTTRETSLRNSSPYDLILMDCQMPKMDGYEATKAIRRAEIGTELHIPIVALTAHAMSSDEAKCLEVGMDAYLTKPIDRKLMVSTILSLTKPSAFQTSLSA
# partner: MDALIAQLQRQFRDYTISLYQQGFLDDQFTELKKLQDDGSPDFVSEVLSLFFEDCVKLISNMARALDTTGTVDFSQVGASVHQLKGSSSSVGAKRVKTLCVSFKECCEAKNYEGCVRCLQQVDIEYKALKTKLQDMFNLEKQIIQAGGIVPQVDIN
# Variants of: B1
# Settings: with ahp2_arath AHP2, Q9ZNV8
row,Variant,effect of a mutation on the interaction
1,D1075E,disrupting interaction
